The test system of experiment [1] is P. cinnamomi. The experiment can be described thus: Hyphal growth rate. The experiment is classed as cell-based, Phytophthora cinnamomi. The note with it: data not shown.
Experiment [2] concerns P. sojae. The experiment can be described thus: Hyphal growth rate. The experiment is classed as cell-based, Phytophthora sojae. The note with it: data not shown.
Experiment [3] relates to Phytophthora cinnamomi. The experiment is classed as cell-based.
Experiment [4] is described as follows: Hydrolysis of PIPx, neutral-lipid TLC. Type of experiment: biochemical. Particulars: 0.2 mg/ml enzyme; listed as Alt-PLC1. The procedure: Lipid samples of 0.5 μl were applied to silica 60 TLC plates and allowed to dry prior to the addition of more sample. Neutral lipids were applied to 10×20 cm pre-absorption zone-bearing silica-60 plates (Sigma-Aldrich, USA) and resolved in a solvent mixture of hexane:diethyl ether:acetic acid (9:1:0.5). Phospholipids were resolved on 20×20 cm silica-60 plates (Merck, Australia), without a pre-absorption zone, in a solvent mixture of chloroform:methanol:acetic acid:water (90:40:12:2). Lipids were detected by spraying the dried TLC plates with a solution of 0.05% rhodamine B (Sigma) in methanol and destaining was performed by repeated spraying with 5 M KOH. Lipid spots were then visualised following UV excitation at 312 nm.
Alt-PLC and Alt-PLC2 were refolded into buffer A4 at a concentration of 0.2 mg/ml and a hydrolysis reaction was performed using PIPx (mixed phosphatidylinositols, Sigma) as the substrate. The reaction was performed as described previously and the resultant neutral lipids were extracted by diethyl ether phase extraction. The samples were analysed by neutral-lipid thin-layer chromatography, on silica 60 plates with a pre-absorption zone; the mobile phase employed was hexane: diethyl ether: acetic acid (9:1:0.5).

Experiment [5] relates to E. coli. The experiment can be described thus: Growth curves of E. coli expressing Alt-PLC and truncations. The note with it: relative to E. coli not expressing Alt-PLC. Type of experiment: cell-based. The procedure: An analysis of function of the Alt-PLC truncations was performed using growth curves of Alt-PLC expressing E. coli cells (FIG. 28).
Therefore, growth curves of E. coli expressing Alt-PLC and the truncations allow determination of Alt-PLC function in vivo.

A short description of experiment [6]: IP3 production from bovine brain phosphatidylinositols, ESI-MS. The experiment is classed as biochemical. Particulars: CaCl2 or EDTA; three protein batches. The procedure:
All mass spectra were produced using a 6210 MSDTOF mass spectrometer (Agilent Technologies, Australia) with the following conditions: drying gas, nitrogen ([…], 350° C.); nebulizer gas, nitrogen (16 psi); capillary voltage, ±4.0 kV; vaporizer temperature, 350° C.; and cone voltage, 60V, 5 μL.
To test for phospholipase C-like function of Alt-PLC, electrospray ionization mass spectrometry (ESI-MS) was utilized to identify of inositol(1,4,5)triphosphate (IP3) produced from reactions of Alt-PLC with lipids.
Three separate batches of protein (purified from independent transformations) were prepared and reacted with a mixture of phosphatidylinositols from bovine brain in the presence of CaCl2 or in the presence of EDTA. Chloroform phase-extraction was performed and the aqueous phase analysed for the presence of IP3 by ESI-MS.

Experiment [7] in a line: In-solution hydrolysis of diC8-PI(4,5)P2, products by ESI-MS, TLC and NMR. Type of experiment: biochemical. The note with it: with calcium, 60 min. The procedure: Five milligrams of lyophilised, synthetic 1,2-dioctanol-D-myo-phosphatidylinositol(4,5)bisphosphate (diC8-PI(4,5)P2: Echelon Biosciences, USA) was resuspended in 500 μl of 20 mM tris pH:8.0; to this, 100 μl of 1M CaCl2 and 400 μl of refolded Alt-PLC (0.1 mg/ml) in buffer A4 were added and the reaction allowed to proceed for 60 min. The reaction was stopped by phase separation with the addition of 3.75 ml of chloroform:methanol:12N HCl (2:4:0.1) and mixed thoroughly before the addition of 1.25 ml of chloroform. The solution was then vortexed for 30 sec before addition of 1.25 ml of ddH2O and then further vortexed for 30 seconds. The sample was then centrifuged at 1000 rpm for 10 min in a swinging bucket rotor at 4° C. The upper aqueous layer (containing inositols) and the lower chloroform layer (containing all lipids and phospholipids) were separately lyophilised in glass tubes and stored at −80° C. for further analysis. Further separation of polar and non-polar lipids, developed by the hydrolysis reaction, was performed by resuspending the lyophilised, chloroform layer in 1 mil 75% methanol and then adding 1 ml of n-hexane. […]
The unusual nature of this double hydrolysis led the Applicant to perform NMR on the MAG and acyl arg fractions as an additional confirmation of the ESI-MS results. […] NMR spectra were recorded at 400 MHz at −55° C. […]

The record followed here is patent publication US20140329787A1, “PHYTOPHTHORA PHOSPHOLIPASE C” (Deakin University, priority 2011, published 2014).

Entries after “also recorded” stand apart in the source; their conditions may differ.

For the molecule `COc1ccc2c(c1)CC[C@@H]1[C@@H]2CC[C@]2(C)[C@@H](NCCCCCCN3C(=O)C=CC3=O)CC[C@@H]12` [U-73122], the hyphal growth rate result in experiment [1] and in experiment [2] was “markedly reduces hyphal growth rate” in each case. Moreover, the “PIP2 level and distribution in hyphae” value in experiment [3] is reported as “PIP2 increased; also recorded: PIP2 showed an almost uniform membrane distribution, indicating uncontrolled accumulation”.

B1: Alt-PLC: Phytophthora sojae alternative phospholipase C, SEQ ID NO: 5; codon optimised, his-tagged, expressed in E. coli (protein, listed as Phytophthora sojae)
chain: MASGWRQKPRLDPWDPPSPPPLLEEAAPKPKPKTSRFSRRSTRAKSHARQQAQHVELEVEEHAEQRDRDKRRSLLASMFGERAQSRASRSSSDASALQSQTQTLVQREKAFRLVRHGSDPLLNDAFYATQVQVGNFVKMGWLTKQGHMWKSWKTRFFVLFSDGTFAYYKNKGRKKIKGCMQLNDGVVSVQHVDIRLADKAYVFQIEKGFYKLLCYCCSQFEAELWVAALRSVRRVAPPCYEMDLTATEEKAGSNAVTRHLNKIFITDKQIAKRLAEFKANTHDHSYAAIHNFIVELDDAIIDRHHLEFYQDAEIELLPGNELVRLIRRHVEDRVFIPLYAEAYASLETDKVKTRRSNLEQHLKVLKQKTQADFGISKDLSVCNWKQAISVVNMLDCVSLPTHKFEVILSAGKAIMELIAQYNGELFEVSDEMLTAIFRYVVTMSSLSDLPTLRALLKYGYQHHPASQNKANVVTAFLNAIKWVECFEAGDESYQFDSLALAGSRVSVSISTNDVGIQFTTDGNGRGAIVYNIRKQSQAALSAAIVPGLSLIAINHEPVIALEFAVKIDYSHRIEVDKSASYLGSQMPNSSWKMVDKDDHVSRSARPGSVDDLIRELVAGTEVDLVDVVSFVLFLDSFSSLNEVVDRLSAHVRNGVKSHGLIRLFIVVLLFRQSETKEADDLRDRFYSLISLNIDAKDKLVPLVEEYMSLYKEYFSLRGAGNYAVNYQAIPGMMSKVYGMESGFEPVSSGPFSAHLHRFVDAERWAEQCTLLTHAVFCKIPVRDFIPTGSKKKHSVEFTSIKRWFQHISAFVINAVLVQNTPEERAEVISFYLKLSLDAKKMMNEMQLLSDKGCREMNRLMRKTANPSMPYIGLYLQGFVGLNELPAFDKEGLVNANRLRRMGELAMEILHRQSVAYTLQHDEDVNKLLHVSLPYSSEESRYARSLELEPREADAIPLSDRGSYTLIDDDVDLENEVRESIGGDGTFGFRQWIRKQQVVHRNRSRSSVIALYEWV
modifications: His tag
notes: codon optimised, his-tagged, expressed in E. coli
B1: in experiment [4], the “monoacylglycerol production / phospholipase C activity level in vitro” value is recorded as “detection of monoacylglycerol production; also recorded: higher activity level in vitro than Alt-PLC2”. Also, the “growth of expressing E. coli (function in vivo)” value in experiment [5] is “characteristic reduced growth of the bacteria”. Also, the “IP3 production (m/z 160.6)” value in experiment [6] is recorded as “IP3 was produced in the Ca^2+-activated reactions, but was not produced in the presence of EDTA”. Besides, in experiment [7], the products of hydrolysis was 1-monacylglycerol, a free fatty acid (FFA) and inositol(1,4,5)triphosphate.
